Test results taken from the supplement of paper PMC10126150.
± gives the standard deviation of the averaged measurements.

Test system: ATP
Test: switch fluorescence ratio, 500 uM ATP over buffer (Cy3 cluster intensity, sum of 5 cycles each) (fold (ratio)); higher = stronger signal-on switching upon ATP binding; sequences stand for … in TCGTCGGCAGCGTCAGATGTGTATAAGAGACAGTTTTTTTTTTTTTTTTTTTTTTTTT…TC
Details: aptamer strand: ATP DNA aptamer (quencher-CACCTGGGGGAGTATTGCGGAGGAAGG + anchor), 100 nM annealed; ATP concentration: 500 uM
Procedure, shortened: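 Clusters carrying Cy3-labelled switching strands on a modified Illumina MiSeq flow-cell were annealed to 100 nM quencher-labelled ATP aptamer and imaged in selection buffer. They were imaged again after 15 min with 500 uM ATP at 22 °C, over five buffer/ATP cycles with NaOH stripping and re-annealing in between. For each cluster, the fluorescence ratio is the summed Cy3 intensity of the target cycles divided by that of the buffer cycles, averaged per switch-domain sequence. Clusters outside 100-1000 RFU were left out.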
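Note: ATP exposure 15 min at 22 °C before imaging.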

## GGTCCATACG
  switch fluorescence ratio: 1.01 ± 0.025

## GGTCCCAAAA
  switch fluorescence ratio: 0.981 ± 0.032

## GGTCCCCAAT
  switch fluorescence ratio: 1 ± 0.013

## GGTCCGGCAC
  switch fluorescence ratio: 1.079 ± 0.009

## GGTCCGGGCT
  switch fluorescence ratio: 1 ± 0.02

## GGTCCTAATA
  switch fluorescence ratio: 1 ± 0.026

## GGTCCTCTTT
  switch fluorescence ratio: 0.98275 ± 0.00076

## GGTCCTGCGG
  switch fluorescence ratio: 1.01 ± 0.087

## GGTCCTGGCT
  switch fluorescence ratio: 1.015 ± 0.01

## GGTCGAAAGG
  switch fluorescence ratio: 0.985 ± 0.063

## GGTCGAGCTA
  switch fluorescence ratio: 0.996 ± 0.042

## GGTCGCGGGG
  switch fluorescence ratio: 1.03 ± 0.027

## GGTCGCTTGG
  switch fluorescence ratio: 1.04 ± 0.061

## GGTCGGGCTG
  switch fluorescence ratio: 0.9942 ± 0.0047

## GGTCGGGGCA
  switch fluorescence ratio: 1.02 ± 0.025

## GGTCGGGGGG
  switch fluorescence ratio: 1.03 ± 0.037

## GGTCGGGGTG
  switch fluorescence ratio: 1.09 ± 0.069

## GGTCGTCTTG
  switch fluorescence ratio: 0.996 ± 0.04

## GGTCGTGTAA
  switch fluorescence ratio: 0.991 ± 0.061

## GGTCGTTTTG
  switch fluorescence ratio: 0.991 ± 0.025

## GGTCTAAGTA
  switch fluorescence ratio: 1.08 ± 0.084

## GGTCTAGTCC
  switch fluorescence ratio: 1.018 ± 0.0034

## GGTCTATCGG
  switch fluorescence ratio: 0.965 ± 0.018

## GGTCTATCGT
  switch fluorescence ratio: 1 ± 0.039

## GGTCTCAGGT
  switch fluorescence ratio: 1.03 ± 0.023

## GGTCTCCTTT
  switch fluorescence ratio: 0.971 ± 0.018

## GGTCTGAAGT
  switch fluorescence ratio: 1.008 ± 0.004

## GGTCTGGGAG
  switch fluorescence ratio: 1 ± 0.023

## GGTCTGGGTG
  switch fluorescence ratio: 1.08 ± 0.066

## GGTCTGTTGT
  switch fluorescence ratio: 0.99 ± 0.049

## GGTCTTGTTT
  switch fluorescence ratio: 0.9891 ± 0.0078

## GGTCTTTTGG
  switch fluorescence ratio: 0.981 ± 0.013

## GGTGAAAGCT
  switch fluorescence ratio: 1.04 ± 0.019

## GGTGAAATTG
  switch fluorescence ratio: 1 ± 0.015

## GGTGAAGAGG
  switch fluorescence ratio: 0.9791 ± 0.0061

## GGTGAAGCCT
  switch fluorescence ratio: 0.991 ± 0.047

## GGTGAATGGC
  switch fluorescence ratio: 1.03 ± 0.017

## GGTGACACTT
  switch fluorescence ratio: 0.996 ± 0.033

## GGTGACGATT
  switch fluorescence ratio: 0.9712 ± 0.0065

## GGTGACGCTG
  switch fluorescence ratio: 0.992 ± 0.031

## GGTGACTGGG
  switch fluorescence ratio: 0.903 ± 0.042

## GGTGAGCTAG
  switch fluorescence ratio: 0.9866 ± 0.0034

## GGTGATAGTG
  switch fluorescence ratio: 0.983 ± 0.024

## GGTGATGAAA
  switch fluorescence ratio: 0.998 ± 0.025

## GGTGATGGTT
  switch fluorescence ratio: 0.986 ± 0.047

## GGTGATGTGG
  switch fluorescence ratio: 0.986 ± 0.022

## GGTGATTGAC
  switch fluorescence ratio: 1.18 ± 0.3

## GGTGCAATGA
  switch fluorescence ratio: 1.956 ± 0.0021

## GGTGCAGCTG
  switch fluorescence ratio: 0.981 ± 0.016

## GGTGCAGGAG
  switch fluorescence ratio: 0.999 ± 0.035

## GGTGCATATA
  switch fluorescence ratio: 1.05 ± 0.032

## GGTGCGCATA
  switch fluorescence ratio: 1.03 ± 0.019

## GGTGCGCATG
  switch fluorescence ratio: 0.994 ± 0.011

## GGTGCTAGAA
  switch fluorescence ratio: 0.9789 ± 0.0083

## GGTGCTAGTG
  switch fluorescence ratio: 0.999 ± 0.015

## GGTGCTGTGT
  switch fluorescence ratio: 1.01 ± 0.039

## GGTGGAAAAG
  switch fluorescence ratio: 1 ± 0.023

## GGTGGCGGAT
  switch fluorescence ratio: 1.07 ± 0.033

## GGTGGCGTTA
  switch fluorescence ratio: 0.999 ± 0.016

## GGTGGCTTTT
  switch fluorescence ratio: 1.02 ± 0.099

## GGTGGGATGA
  switch fluorescence ratio: 0.965 ± 0.015

## GGTGGGCGGA
  switch fluorescence ratio: 1.01 ± 0.029

## GGTGGGGAAC
  switch fluorescence ratio: 1.03 ± 0.068

## GGTGGGGAAT
  switch fluorescence ratio: 0.979 ± 0.022

## GGTGGGGATG
  switch fluorescence ratio: 0.984 ± 0.027

## GGTGGGGCTT
  switch fluorescence ratio: 0.998 ± 0.025

## GGTGGGGGTG
  switch fluorescence ratio: 0.998 ± 0.031

## GGTGTAATAG
  switch fluorescence ratio: 1.04 ± 0.036

## GGTGTAGAAC
  switch fluorescence ratio: 1 ± 0.049

## GGTGTAGCGA
  switch fluorescence ratio: 1.03 ± 0.026

## GGTGTAGGCA
  switch fluorescence ratio: 0.987 ± 0.03

## GGTGTAGGGA
  switch fluorescence ratio: 0.992 ± 0.013

## GGTGTAGGGG
  switch fluorescence ratio: 1.04 ± 0.074

## GGTGTAGTTG
  switch fluorescence ratio: 0.999 ± 0.037

## GGTGTATAAA
  switch fluorescence ratio: 0.967 ± 0.054

## GGTGTATAGG
  switch fluorescence ratio: 1.01 ± 0.011

## GGTGTATGAA
  switch fluorescence ratio: 0.994 ± 0.029

## GGTGTCCGGT
  switch fluorescence ratio: 0.998 ± 0.03

## GGTGTCGGGT
  switch fluorescence ratio: 0.99 ± 0.012

## GGTGTCTGGG
  switch fluorescence ratio: 0.984 ± 0.074

## GGTGTCTGGT
  switch fluorescence ratio: 1.001 ± 0.0061

## GGTGTCTTAC
  switch fluorescence ratio: 1.01 ± 0.029

## GGTGTGACCA
  switch fluorescence ratio: 1.02 ± 0.015

## GGTGTGCCAA
  switch fluorescence ratio: 1 ± 0.022

## GGTGTGCGGA
  switch fluorescence ratio: 1.02 ± 0.024

## GGTGTGCGTC
  switch fluorescence ratio: 1 ± 0.026

## GGTGTGGCTA
  switch fluorescence ratio: 0.989 ± 0.012

## GGTGTGGGGC
  switch fluorescence ratio: 1.01 ± 0.024

## GGTGTGGTGC
  switch fluorescence ratio: 1.02 ± 0.012

## GGTGTGTACG
  switch fluorescence ratio: 1.28 ± 0.41

## GGTGTGTGCT
  switch fluorescence ratio: 0.989 ± 0.049

## GGTGTGTGTC
  switch fluorescence ratio: 1.02 ± 0.02

## GGTGTGTTTT
  switch fluorescence ratio: 0.981 ± 0.048

## GGTGTTAATT
  switch fluorescence ratio: 0.9888 ± 0.0093

## GGTGTTAGTG
  switch fluorescence ratio: 0.977 ± 0.023

## GGTGTTATAT
  switch fluorescence ratio: 1.02 ± 0.04

## GGTGTTGATC
  switch fluorescence ratio: 1.03 ± 0.025

## GGTGTTTCGC
  switch fluorescence ratio: 0.994 ± 0.0095

## GGTGTTTCGG
  switch fluorescence ratio: 0.966 ± 0.014

## GGTGTTTGAC
  switch fluorescence ratio: 0.999 ± 0.011

## GGTGTTTTCG
  switch fluorescence ratio: 0.998 ± 0.03

## GGTTAAAGAA
  switch fluorescence ratio: 1.004 ± 0.0082

## GGTTAATAGG
  switch fluorescence ratio: 0.99 ± 0.013

## GGTTACAATT
  switch fluorescence ratio: 0.982 ± 0.032

## GGTTACACTG
  switch fluorescence ratio: 1.03 ± 0.025

## GGTTACTAAG
  switch fluorescence ratio: 1.01 ± 0.017

## GGTTAGAAAT
  switch fluorescence ratio: 0.98 ± 0.016

## GGTTAGAGTA
  switch fluorescence ratio: 1.01 ± 0.025

## GGTTAGATGG
  switch fluorescence ratio: 0.978 ± 0.043

## GGTTAGGAAG
  switch fluorescence ratio: 1.005 ± 0.0037

## GGTTAGGCGG
  switch fluorescence ratio: 0.954 ± 0.015

## GGTTAGGGGT
  switch fluorescence ratio: 1.08 ± 0.24

## GGTTATAATC
  switch fluorescence ratio: 0.969 ± 0.07

## GGTTATAATT
  switch fluorescence ratio: 1.004 ± 0.0011

## GGTTATACGA
  switch fluorescence ratio: 1.034 ± 0.0054

## GGTTATATGT
  switch fluorescence ratio: 1.02 ± 0.021

## GGTTATGAAT
  switch fluorescence ratio: 1 ± 0.015

## GGTTATGGTG
  switch fluorescence ratio: 1.02 ± 0.02

## GGTTATTATG
  switch fluorescence ratio: 0.978 ± 0.039

## GGTTATTGAG
  switch fluorescence ratio: 0.9799 ± 0.0044

## GGTTCAAGTT
  switch fluorescence ratio: 0.9816 ± 0.0095

## GGTTCACGGC
  switch fluorescence ratio: 1.03 ± 0.015

## GGTTCACGGT
  switch fluorescence ratio: 0.994 ± 0.026

## GGTTCAGAGA
  switch fluorescence ratio: 0.973 ± 0.033

## GGTTCATTCT
  switch fluorescence ratio: 0.9917 ± 0.0062

## GGTTCCACGC
  switch fluorescence ratio: 1.09 ± 0.025

## GGTTCCCACT
  switch fluorescence ratio: 0.9919 ± 0.0045

## GGTTCGCGGT
  switch fluorescence ratio: 1.02 ± 0.03

## GGTTCTACAT
  switch fluorescence ratio: 0.998 ± 0.03

## GGTTCTGTGG
  switch fluorescence ratio: 1.03 ± 0.0094

## GGTTCTGTGT
  switch fluorescence ratio: 0.99 ± 0.012

## GGTTGAAGTT
  switch fluorescence ratio: 0.986 ± 0.0077

## GGTTGAATGT
  switch fluorescence ratio: 0.9843 ± 0.0074

## GGTTGAATTA
  switch fluorescence ratio: 0.979 ± 0.051

## GGTTGACATA
  switch fluorescence ratio: 1.01 ± 0.025

## GGTTGACCTG
  switch fluorescence ratio: 1 ± 0.032

## GGTTGAGTGT
  switch fluorescence ratio: 0.9836 ± 0.0046

## GGTTGATGAT
  switch fluorescence ratio: 0.975 ± 0.033

## GGTTGATGTT
  switch fluorescence ratio: 0.969 ± 0.059

## GGTTGATTAT
  switch fluorescence ratio: 0.9793 ± 0.0065

## GGTTGCACAG
  switch fluorescence ratio: 1.005 ± 0.0043

## GGTTGCAGTC
  switch fluorescence ratio: 0.946 ± 0.025

## GGTTGCGTTT
  switch fluorescence ratio: 0.9997 ± 0.001

## GGTTGCTCGT
  switch fluorescence ratio: 1.008 ± 0.0092

## GGTTGGAAGG
  switch fluorescence ratio: 0.9761 ± 0.0047

## GGTTGGATCG
  switch fluorescence ratio: 0.9987 ± 0.0047

## GGTTGGCAGG
  switch fluorescence ratio: 1 ± 0.038

## GGTTGGCGGG
  switch fluorescence ratio: 1.07 ± 0.021

## GGTTGGCGTT
  switch fluorescence ratio: 0.961 ± 0.03

## GGTTGGCTTT
  switch fluorescence ratio: 1.01 ± 0.069

## GGTTGGGACT
  switch fluorescence ratio: 0.994 ± 0.028

## GGTTGGGGAT
  switch fluorescence ratio: 0.979 ± 0.016

## GGTTGGGGTG
  switch fluorescence ratio: 1.01 ± 0.037

## GGTTGGTTGG
  switch fluorescence ratio: 0.9769 ± 0.0012

## GGTTGTCTCG
  switch fluorescence ratio: 0.951 ± 0.021

## GGTTGTGACG
  switch fluorescence ratio: 1 ± 0.08

## GGTTGTGTGT
  switch fluorescence ratio: 1 ± 0.005
